From the nanobody polyreactivity screen of Harvey et al. (2022)

assay: yeast display, Sf9 membrane polyspecificity reagent, FACS + sequencing; frameworks hold sequencing errors
Procedure, shortened: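 After 36–48 hours of galactose induction, yeast (Saccharomyces cerevisiae BJ5465) displaying a synthetic nanobody library were stained at 4 °C for 1 hour with 10% biotinylated, detergent-solubilized Sf9 membrane reagent. Streptavidin microbeads enriched the stained cells before FACS sorting into low and high (top ~1%) gates on anti-HA and streptavidin fluorescence. Each clone's polyreactivity label reflects its gate of origin.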

Sequence	polyreactivity (PSR sort gate)
QVQLVESGGGLVQAGGSLRLSCAASGRTFGLNAMGWYRQAPGKERELVAVITSSGGSTYYADSVKGRFTISRDNAKNTVYLQMNSLKPEDTAVYYCAARPPYTDSSPGERTYDYWGQGTQVTVSS	low polyreactivity
QVQLVESGGGLVQAGGSLRLSCAASGRTFGLNVMGWYRQAPGKERELVATISGVGSTNYADSVKGRFTISRDNAKNTVYLQMNSLKPEDTAVYYCDKDPHVGRWWDLYSPYYSWGQGTQVTVSS	low polyreactivity
QVQLVESGGGLVQAGGSLRLSCAASGRTFGLNVMGWYRQAPGKERELVATISWSGGTTYYADSVKGRFTISRDYAKNTVYLQMNSLKPEDTAVYYCNRQVTWYPTGGFWGQGTQVTVSS	low polyreactivity
QVQLVESGGGLVQAGGSLRLSCAASGRTFGLYAMGWYRQAPGKERELVAAISSGDSTNYADSVKGRFTISRDNAKNTVYLQMNSLKPEDTAVYYCAAAQQRWWQWYYYWGQGTQVTVSS	high polyreactivity
QVQLVESGGGLVQAGGSLRLSCAASGRTFGLYAMGWYRQAPGKERELVAAISYSGGRTYYADSVKGRFTISRDNAKKTVYLQMNILKPEDTAVYYCNKAWFRYYYYRFDYWGLGTQVTVSS	high polyreactivity
QVQLVESGGGLVQAGGSLRLSCAASGRTFGPNVMGWYRQAPGKERELVAAITYSSASTYYADSVKGRFTISRDNAKNTVYLQMNSLKPEDTAVYYCAARDRYYFGGMYYWGQGTQVTVSS	low polyreactivity
QVQLVESGGGLVQAGGSLRLSCAASGRTFGPYAMGWSRQAPGKEREFVAAISYSGGSTYYADSVKGRFTISRDNAKNTVYFQITSLKPEDTAVYYCAVDIDSNSGTRDYWGQGTQVTVSS	low polyreactivity
QVQLVESGGGLVQAGGSLRLSCAASGRTFGPYAMGWYRQAPGKERELVAAIRYIDDSTFYADSVKGRFTISRDNAKNTVYLQMNSLKPEDTAVYYCAAQRRVVGRHGLSLIRYDYWGQGTQVTVSS	low polyreactivity
QVQLVESGGGLVQAGGSLRLSCAASGRTFGPYAMGWYRQAPGKERELVAAITDTGSGTYYADSVKGRFTISRDNAKNTVYIQMNSLKPEDTAVFYCNANYLSWYRYKYNYWGQGTQVTVSS	low polyreactivity
QVQLVESGGGLVQAGGSLRLSCAASGRTFGQNAMGWYRQAPGKERELVAAISASGSNTYYADSVKGRFTISRDNAKNTVYVQMNSLKPEDTAVYYCAKQVYRPGQQSRYDYWGQGTQVTVSS	low polyreactivity
QVQLVESGGGLVQAGGSLRLSCAASGRTFGQYALGGSRKAPGKERELVATITRTARTNYADSVKGRFTISRDNAKNTVYLQMNSLKPEDTAVYYCAKGWPAIYGTYDYCGQGTQVTVSS	high polyreactivity
QVQLVESGGGLVQAGGSLRLSCAASGRTFGRNAMGWYRQAPGERELVAVISRGGSTYYADSVKGRFTISRDNAKNTVYLQMNSLKPEDTAVYYCNADTVYTRNATYDYWGQCTQVTVSS	low polyreactivity
QVQLVESGGGLVQAGGSLRLSCAASGRTFGRNAMGWYRQAPGKERELVAAINGNGGRTSYADSVKGRFTISRDNAKNTVYLPMNSLKPEDTAVYYCNKYTPGWYRYYYWGQGTQVTVSS	high polyreactivity
QVQLVESGGGLVQAGGSLRLSCAASGRTFGRNAMGWYRQAPGKERELVAAISSSGASTYYADSVKGRFTISRDNAKNTVYLQMNSLKPEDTAVYYCAKDVWGSRYAYDYWGQGTQVTVSS	low polyreactivity
QVQLVESGGGLVQAGGSLRLSCAASGRTFGRNTMGWYRQAPGKERELVAAIDWSGGSTYYADSVKGRFTISRDNAKNTVYLQMNSLKPEDTAVYYCAAKTRWNFYYWGQGTQVTVSS	high polyreactivity
QVQLVESGGGLVQAGGSLRLSCAASGRTFGRYAMGWYRQAPGKERELVAAINSGSASTYYADSVKGRFTISRDNAKNTVYLQMNSLKPEDTAVYYCAVYGYWSKSDYWGQGTQVTVSS	high polyreactivity
QVQLVESGGGLVQAGGSLRLSCAASGRTFGRYTMGWYRQAPGKERELVATIRFNGGSTYYADSVKGRFTISRDNAKNTVYLQMNSLKPEDTAVYYCASYRGAYWGQGTQVTVSS	high polyreactivity
QVQLVESGGGLVQAGGSLRLSCAASGRTFGRYVMGWYRQAPGKERELVAAIDGSGGSTYYADSVKGRFTISRDNAKNTVYLQMNSLKPEDTAVYYCNADVGFVGGDYWGQGTQVTVSS	high polyreactivity
QVQLVESGGGLVQAGGSLRLSCAASGRTFGSYAMGWYRQAPGKEREFVASISRRGGSTYYADSVKVRFTISRDNAKNTVYLQINSLKPEDTAVYYCAAGVPASWFDYWGQGTQVTVSS	high polyreactivity
QVQLVESGGGLVQAGGSLRLSCAASGRTFGSYAMGWYRQAPGKERELVAAISSSGGRTYYADSVKGRFTISRDNAKTTVYLQMNSLKPEDTAVYSCNARWRFLYDYWGQGTQVTVSS	high polyreactivity
QVQLVESGGGLVQAGGSLRLSCAASGRTFGSYAMGWYRQAPGKERELVAAITASGVRTYYADSVKGRFTISRDNAKNTVYLQMNSLKPEDTAVYYCNARRLSTVQYDYWGQGTQVTVSS	high polyreactivity
QVQLVESGGGLVQAGGSLRLSCAASGRTFGSYAMGWYRQAPGKERELVAAITTDASTNYADSVKGRFTISRDNAKNTVYLQMNSLKPEDTAVYYCAKRKRTNYGFWGQGTQVTVSS	low polyreactivity

Sequence	polyreactivity (PSR sort gate)
QVQLVESGGGLVQAGGSLRLSCAASGRTFGSYGMGWYRQAPGKERELVAAISRSVGSTYYADSVKGRFTISRDNAKITVYLQMNSLKPEDTAVYYCNTVDRRRYAGHYYWGQGTQVTVSS	high polyreactivity
QVQLVESGGGLVQAGGSLRLSCAASGRTFGSYVMGWYRQAPGKERELVAAISSRGTRTYYADSVKGRFTISRDNAKNTVYLQMNSLKPEDTAVYYCAAEWPYRFQYGEMDYWGQGTQVTVSS	high polyreactivity
QVQLVESGGGLVQAGGSLRLSCAASGRTFGTYAMGWYRQAPGKDRELVAAISRRGGTTYYADSVKGRFTISRDNAKNTVYLQMNSLKPEDTAVYYCARASWSITTVLSTMDYWGQGTQVTVSS	high polyreactivity
QVQLVESGGGLVQAGGSLRLSCAASGRTFGVNAMGWYRQAPGKEREFVAAISRSTGSTYYADSVKGRFTISRDNAKNTVYLQMNSLKPEDTAVYYCAVKGASYPAYRGYDYWGQGTQVTVSS	high polyreactivity
QVQLVESGGGLVQAGGSLRLSCAASGRTFGVNAMGWYRQAPGKERELVARIRVSGGRTYYADSVKGLFTISRDNAKNTVYLQMNSLKPEDTAVYYCNAGYTYNRVIWPYYYWGQGTQVTVSS	high polyreactivity
QVQLVESGGGLVQAGGSLRLSCAASGRTFGVNTMGCYRQAPGKEREFVASISTSGGSTYADSVNGRFTISRDNAKNTVYLQMNSLKPEDTAVYYCAKDTDAVYDEYDSWGQGTQVTVSS	low polyreactivity
QVQLVESGGGLVQAGGSLRLSCAASGRTFGVNTMGWYRQAPGKERELVASISTSGGSTYADSVKGRFTISRDNAKNTVYLQMNSLKPEDTAVYYCAKDTDAVYDEYDSWGQGTQVTVSS	low polyreactivity
QVQLVESGGGLVQAGGSLRLSCAASGRTFGVYAMGWYRQAPGKERELVAGIRWRGGSTYYADSVKGRFTISRDNAKNTVYLQMNSLKPEDTAVYYWAARVQFPYPDYAWITVLYDYWGQCTQVTVSS	low polyreactivity
QVQLVESGGGLVQAGGSLRLSCAASGRTFGVYAMGWYRQAPGKERELVARIRYSGGTTRYADSVKGRFTISRDNAKITVYFQMNSLKPEDTAVYYCAARSGYFRSRFDYWGQGTQVTVSS	high polyreactivity
QVQLVESGGGLVQAGGSLRLSCAASGRTFGVYVMGWYRQAPGKERELVAAIRIGDSTNYADSVKGRFTISRDNAKNTVYLQMNSLKPEDTAVYYCNAYRVRYTVDSVFYGYDYWGQGTQVTVSS	high polyreactivity
QVQLVESGGGLVQAGGSLRLSCAASGRTFGVYVMGWYRQAPGKERELVAVITISGGSTYYADSVKGRFTISRDNAKNTVYLQMNSLKPEDTAVYYCAARTYYGYDYWGQGTQVTVSS	high polyreactivity
QVQLVESGGGLVQAGGSLRLSCAASGRTFGWNAMGWYRQAPGKERELVAAITRGGITNYADSVKGRFTISRDNAKNTVYLQMNSLKPEDTAVYYCNKKFYRGASRYYYWGQGTQVTVSS	high polyreactivity
QVQLVESGGGLVQAGGSLRLSCAASGRTFGWYAMGWYRQAPGKERELVAAISSSDDSTYYADSVKGRFTISRDNAKNTVYLQMNSLKPEDTAVYYCAADGYPDPYKVRFGYWGQGTQVTVSS	low polyreactivity
QVQLVESGGGLVQAGGSLRLSCAASGRTFGWYTMGRYRQAPGKERELVAGISSSGGSTYYADSVKGRFTISRDNAKNTVYLQMNSLKPEDTAVYYCARETYPHGLYYRPYDYWGQGTQVTVSS	low polyreactivity
QVQLVESGGGLVQAGGSLRLSCAASGRTFGYNAMGWNRQAPGKERELVAAINWSGASTYYADSVKGRFTISRDNAKNTVYFQMNSLKPADTAVYYCAADYSYIYGFDYWGQGTQVTVSS	low polyreactivity
QVQLVESGGGLVQAGGSLRLSCAASGRTFGYNAMGWYRQAPGKEREFVAAITWSGGRTYYADSVKGRFTISRDNAKNTVYLQMISLKPEDTAVYYCAAVLGRPLHGVAYGYWGQGTQVTVSS	low polyreactivity
QVQLVESGGGLVQAGGSLRLSCAASGRTFGYNAMGWYRQAPGKERELVAAISYSGGRTYYADSVKGRFTISRDNAKNTVYLQMNSLKPEDTAVYYCAAKNPYKYDYWGQGTQVTVSS	high polyreactivity
QVQLVESGGGLVQAGGSLRLSCAASGRTFGYNAMGWYRQAPGKERELVAAITRGGSTYYADSVKGRFTISRDNAKNTVYLQMNSLKPEDTAVYYCAAKSYWSGYFVGYEYWGQGTQVTVSS	high polyreactivity
QVQLVESGGGLVQAGGSLRLSCAASGRTFGYNAMGWYRQAPGTERELVAGITGTGGTTNYADSVKGRFTISRDNAKNTVYLQMNSLKPEDTAVYYCNKDYDVSSEKEPLGYWGQGTQVTVSS	low polyreactivity
QVQLVESGGGLVQAGGSLRLSCAASGRTFGYNGMGWYRQAPGKERELVAAINSGGNTNYADSVKGRFTISRDNAKNTVYLQMNSLKPEDTSVYYCAKYGTLFEPVPNEYDYWGQGTQVTVSS	low polyreactivity
QVQLVESGGGLVQAGGSLRLSCAASGRTFGYNVMGWYRQAPGKERELVARITSGGNTKYADSVKGRFTISRDNAKNTVYLQMNSLKPEDTAVYYCAKRPLGVRGIYFQYDYWGQGTQVTVSS	high polyreactivity
